Results reported in PMC12663309.

Target: NEK7-mut (NEK7 with deletion of the binding sites) (UniProt Q8TDX7)
Test: SPR; Biacore T200; NEK7 or NEK7-mut immobilised by amine coupling; SDHB flowed at different concentrations; 1:1 Langmuir binding model

Sequence of NEK7-mut (NEK7 with deletion of the binding sites) (Q8TDX7 whole entry, stated change not applied): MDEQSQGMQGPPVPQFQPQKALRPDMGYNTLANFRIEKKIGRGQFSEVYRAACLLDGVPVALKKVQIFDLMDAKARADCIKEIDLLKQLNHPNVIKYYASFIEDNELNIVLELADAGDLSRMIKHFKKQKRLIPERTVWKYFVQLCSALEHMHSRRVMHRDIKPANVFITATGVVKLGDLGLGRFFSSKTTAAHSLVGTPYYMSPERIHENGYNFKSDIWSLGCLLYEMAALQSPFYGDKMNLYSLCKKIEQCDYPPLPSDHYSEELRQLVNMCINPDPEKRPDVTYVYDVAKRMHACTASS

B1: human SDHB recombinant protein (Ag29868, Proteintech) (natural protein)
chain: AQTAAATAPRIKKFAIYRWDPDKAGDKPHMQTYEVDLNKCGPMVLDALIKIKNEVDSTLTFRRSCREGICGSCAMNINGGNTLACTRRIDTNLNKVSKIYPLPHMYVIKDLVPDLSNFYAQYKSIEPYLKKKDESQEGKQQYLQSIEEREKLDGLYECILCACCSTSCPSYWWNGDKYLGPAVLMQAYRWMIDSRDDFTEERLAKLQDPFSLYRCHTIMNCTRTCPKGLNPGKAIAEIKKMMATYKEKKASV
Kd: 4.75 µM
